# In paper PMC4434323:
# Key:
# [1] = molecular target: T1, nhr-42 (C33G8.6) (Caenorhabditis elegans) (UniProt O76828)
# T1 sequence: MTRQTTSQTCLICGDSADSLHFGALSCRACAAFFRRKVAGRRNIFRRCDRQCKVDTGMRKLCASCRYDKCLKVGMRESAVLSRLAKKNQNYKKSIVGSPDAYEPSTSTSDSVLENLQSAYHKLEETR
# [2] = molecular target: T2, daf-12 (F11A1.3) (Caenorhabditis elegans) (UniProt G5EFF5)
# T2 sequence: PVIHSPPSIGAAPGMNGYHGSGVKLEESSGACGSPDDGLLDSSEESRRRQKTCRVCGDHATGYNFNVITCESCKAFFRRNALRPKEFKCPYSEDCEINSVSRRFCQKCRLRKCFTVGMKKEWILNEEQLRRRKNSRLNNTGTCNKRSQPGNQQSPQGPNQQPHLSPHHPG
# [3] = molecular target: T3, unc-120 (D1081.2) (Caenorhabditis elegans) (UniProt Q18955)
# T3 sequence: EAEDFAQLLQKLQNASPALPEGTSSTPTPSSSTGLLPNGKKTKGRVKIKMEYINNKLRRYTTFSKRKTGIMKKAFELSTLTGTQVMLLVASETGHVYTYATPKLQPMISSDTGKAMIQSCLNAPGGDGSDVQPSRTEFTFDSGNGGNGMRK
# [4] = molecular target: T4, T07C12.11 (T07C12.11) (Caenorhabditis elegans) (UniProt G5EGG9)
# T4 sequence: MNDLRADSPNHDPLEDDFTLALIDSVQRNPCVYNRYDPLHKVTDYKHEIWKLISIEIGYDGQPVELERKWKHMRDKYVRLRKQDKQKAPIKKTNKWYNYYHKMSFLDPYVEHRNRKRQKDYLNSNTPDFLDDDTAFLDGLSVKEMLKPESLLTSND
# [5] = molecular target: T5, nhr-46 (C45E5.6) (Caenorhabditis elegans) (UniProt Q95QR2)
# T5 sequence: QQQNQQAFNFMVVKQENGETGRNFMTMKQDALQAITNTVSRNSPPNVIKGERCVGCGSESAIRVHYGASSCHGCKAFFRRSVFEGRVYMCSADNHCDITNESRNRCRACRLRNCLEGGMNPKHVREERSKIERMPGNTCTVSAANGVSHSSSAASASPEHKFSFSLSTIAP
# [6] = molecular target: T6, nhr-142 (F44E7.8) (Caenorhabditis elegans) (UniProt J7SF93)
# T6 sequence: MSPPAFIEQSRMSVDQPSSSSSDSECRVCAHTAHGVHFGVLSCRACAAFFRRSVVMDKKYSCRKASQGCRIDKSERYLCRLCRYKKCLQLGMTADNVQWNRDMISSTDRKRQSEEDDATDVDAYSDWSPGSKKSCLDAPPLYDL
# [7] = molecular target: T7, atf-6 (F45E6.2) (Caenorhabditis elegans) (UniProt Q20435)
# T7 sequence: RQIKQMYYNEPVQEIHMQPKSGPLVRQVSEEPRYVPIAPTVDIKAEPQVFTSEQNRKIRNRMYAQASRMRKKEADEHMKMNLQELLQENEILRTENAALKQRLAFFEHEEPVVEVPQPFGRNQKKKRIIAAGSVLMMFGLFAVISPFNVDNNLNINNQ
# [8] = molecular target: T8, ceh-18 (ZC64.3) (Caenorhabditis elegans) (UniProt P41934)
# T8 sequence: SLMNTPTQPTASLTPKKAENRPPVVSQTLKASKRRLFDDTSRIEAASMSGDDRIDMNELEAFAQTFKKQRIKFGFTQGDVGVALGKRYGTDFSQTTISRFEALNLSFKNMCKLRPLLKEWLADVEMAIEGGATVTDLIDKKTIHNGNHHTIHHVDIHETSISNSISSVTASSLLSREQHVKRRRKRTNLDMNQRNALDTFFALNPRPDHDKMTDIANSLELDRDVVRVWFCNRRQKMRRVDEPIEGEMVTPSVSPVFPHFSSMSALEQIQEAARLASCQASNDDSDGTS
# [9] = molecular target: T9, C07E3.6 (C07E3.6) (Caenorhabditis elegans) (UniProt Q17792)
# T9 sequence: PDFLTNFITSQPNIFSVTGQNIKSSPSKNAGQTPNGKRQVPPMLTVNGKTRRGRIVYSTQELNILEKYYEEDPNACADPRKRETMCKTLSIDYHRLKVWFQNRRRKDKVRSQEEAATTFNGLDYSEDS
# [10] = molecular target: T10, ceh-23 (ZK652.5) (Caenorhabditis elegans) (UniProt P34663)
# T10 sequence: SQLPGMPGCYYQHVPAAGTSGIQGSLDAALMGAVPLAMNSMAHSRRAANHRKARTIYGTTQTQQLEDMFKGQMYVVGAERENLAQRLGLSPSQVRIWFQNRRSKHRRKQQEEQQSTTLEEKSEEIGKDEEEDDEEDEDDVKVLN
sequence,measurement,setting,value
AGACTACG (double strand) [8-mer AGACTACG],binding signal (PBM E-score (-0.5 to 0.5)),[1],0.492
AAGTACAA (double strand) [8-mer AAGTACAA],binding signal (PBM E-score (-0.5 to 0.5)),[2],0.493
AAATATGG (double strand) [8-mer AAATATGG],binding signal (PBM E-score (-0.5 to 0.5)),[3],0.474
ACCTTATA (double strand) [8-mer ACCTTATA],binding signal (PBM E-score (-0.5 to 0.5)),[3],0.466
CCTTATAA (double strand) [8-mer CCTTATAA],binding signal (PBM E-score (-0.5 to 0.5)),[3],0.474
TACGTAAA (double strand) [8-mer TACGTAAA],binding signal (PBM E-score (-0.5 to 0.5)),[4],0.488
ATGATCTC (double strand) [8-mer ATGATCTC],binding signal (PBM E-score (-0.5 to 0.5)),[5],0.46
CTTACGCA (double strand) [8-mer CTTACGCA],binding signal (PBM E-score (-0.5 to 0.5)),[4],0.487
CGTAGTCA (double strand) [8-mer CGTAGTCA],binding signal (PBM E-score (-0.5 to 0.5)),[1],0.48
TAAGTGCA (double strand) [8-mer TAAGTGCA],binding signal (PBM E-score (-0.5 to 0.5)),[2],0.496
CCATAAAA (double strand) [8-mer CCATAAAA],binding signal (PBM E-score (-0.5 to 0.5)),[3],0.459
GAGTCACA (double strand) [8-mer GAGTCACA],binding signal (PBM E-score (-0.5 to 0.5)),[6],0.485
ATACGTAA (double strand) [8-mer ATACGTAA],binding signal (PBM E-score (-0.5 to 0.5)),[4],0.491
AGATCAAA (double strand) [8-mer AGATCAAA],binding signal (PBM E-score (-0.5 to 0.5)),[5],0.473
ACGTAAGA (double strand) [8-mer ACGTAAGA],binding signal (PBM E-score (-0.5 to 0.5)),[4],0.486
CTTGCGTA (double strand) [8-mer CTTGCGTA],binding signal (PBM E-score (-0.5 to 0.5)),[4],0.487
AAGATCAT (double strand) [8-mer AAGATCAT],binding signal (PBM E-score (-0.5 to 0.5)),[5],0.476
TAGATCAA (double strand) [8-mer TAGATCAA],binding signal (PBM E-score (-0.5 to 0.5)),[5],0.465
CATATATG (double strand) [8-mer CATATATG],binding signal (PBM E-score (-0.5 to 0.5)),[3],0.468
GTCATAAA (double strand) [8-mer GTCATAAA],binding signal (PBM E-score (-0.5 to 0.5)),[6],0.484
AGATCAAG (double strand) [8-mer AGATCAAG],binding signal (PBM E-score (-0.5 to 0.5)),[5],0.466
ACACTACG (double strand) [8-mer ACACTACG],binding signal (PBM E-score (-0.5 to 0.5)),[1],0.493
AAGTGCAG (double strand) [8-mer AAGTGCAG],binding signal (PBM E-score (-0.5 to 0.5)),[2],0.492
CTTACGTA (double strand) [8-mer CTTACGTA],binding signal (PBM E-score (-0.5 to 0.5)),[7],0.456
same,binding signal (PBM E-score (-0.5 to 0.5)),[4],0.495
AACGTAAG (double strand) [8-mer AACGTAAG],binding signal (PBM E-score (-0.5 to 0.5)),[4],0.486
ACTACGAT (double strand) [8-mer ACTACGAT],binding signal (PBM E-score (-0.5 to 0.5)),[1],0.482
GACTACGC (double strand) [8-mer GACTACGC],binding signal (PBM E-score (-0.5 to 0.5)),[1],0.484
CAAGTGCA (double strand) [8-mer CAAGTGCA],binding signal (PBM E-score (-0.5 to 0.5)),[2],0.493
TAAGTACA (double strand) [8-mer TAAGTACA],binding signal (PBM E-score (-0.5 to 0.5)),[2],0.492
TATAAGGA (double strand) [8-mer TATAAGGA],binding signal (PBM E-score (-0.5 to 0.5)),[3],0.472
CACTACGA (double strand) [8-mer CACTACGA],binding signal (PBM E-score (-0.5 to 0.5)),[1],0.485
ATATAAGG (double strand) [8-mer ATATAAGG],binding signal (PBM E-score (-0.5 to 0.5)),[3],0.478
ACGTAAGG (double strand) [8-mer ACGTAAGG],binding signal (PBM E-score (-0.5 to 0.5)),[4],0.488
AGTCACAT (double strand) [8-mer AGTCACAT],binding signal (PBM E-score (-0.5 to 0.5)),[1],0.481
CTTGCGCA (double strand) [8-mer CTTGCGCA],binding signal (PBM E-score (-0.5 to 0.5)),[4],0.489
GAATATTC (double strand) [8-mer GAATATTC],binding signal (PBM E-score (-0.5 to 0.5)),[8],0.494
AATATTCA (double strand) [8-mer AATATTCA],binding signal (PBM E-score (-0.5 to 0.5)),[8],0.477
AAAGTGCA (double strand) [8-mer AAAGTGCA],binding signal (PBM E-score (-0.5 to 0.5)),[2],0.498
GCCTTATA (double strand) [8-mer GCCTTATA],binding signal (PBM E-score (-0.5 to 0.5)),[3],0.47
ACGTAAGC (double strand) [8-mer ACGTAAGC],binding signal (PBM E-score (-0.5 to 0.5)),[4],0.487
TACCATAA (double strand) [8-mer TACCATAA],binding signal (PBM E-score (-0.5 to 0.5)),[3],0.462
AAGTGCAA (double strand) [8-mer AAGTGCAA],binding signal (PBM E-score (-0.5 to 0.5)),[2],0.496
AAATAAGG (double strand) [8-mer AAATAAGG],binding signal (PBM E-score (-0.5 to 0.5)),[3],0.464
ATGCATAA (double strand) [8-mer ATGCATAA],binding signal (PBM E-score (-0.5 to 0.5)),[8],0.495
ATATGCAT (double strand) [8-mer ATATGCAT],binding signal (PBM E-score (-0.5 to 0.5)),[8],0.486
ACTACGAA (double strand) [8-mer ACTACGAA],binding signal (PBM E-score (-0.5 to 0.5)),[1],0.486
TGCATAAA (double strand) [8-mer TGCATAAA],binding signal (PBM E-score (-0.5 to 0.5)),[8],0.476
CAGTCACA (double strand) [8-mer CAGTCACA],binding signal (PBM E-score (-0.5 to 0.5)),[6],0.483
TTATGCAA (double strand) [8-mer TTATGCAA],binding signal (PBM E-score (-0.5 to 0.5)),[8],0.476
CATATGCA (double strand) [8-mer CATATGCA],binding signal (PBM E-score (-0.5 to 0.5)),[8],0.478
AAGTACAT (double strand) [8-mer AAGTACAT],binding signal (PBM E-score (-0.5 to 0.5)),[2],0.495
CCATATAA (double strand) [8-mer CCATATAA],binding signal (PBM E-score (-0.5 to 0.5)),[3],0.465
CATAATTA (double strand) [8-mer CATAATTA],binding signal (PBM E-score (-0.5 to 0.5)),[8],0.483
same,binding signal (PBM E-score (-0.5 to 0.5)),[9],0.495
same,binding signal (PBM E-score (-0.5 to 0.5)),[10],0.493
TATATGGA (double strand) [8-mer TATATGGA],binding signal (PBM E-score (-0.5 to 0.5)),[3],0.478
ATATATGG (double strand) [8-mer ATATATGG],binding signal (PBM E-score (-0.5 to 0.5)),[3],0.486
ATGAATAA (double strand) [8-mer ATGAATAA],binding signal (PBM E-score (-0.5 to 0.5)),[8],0.477
GTTACGTA (double strand) [8-mer GTTACGTA],binding signal (PBM E-score (-0.5 to 0.5)),[4],0.49
ATTATGCA (double strand) [8-mer ATTATGCA],binding signal (PBM E-score (-0.5 to 0.5)),[8],0.496
CATATAAG (double strand) [8-mer CATATAAG],binding signal (PBM E-score (-0.5 to 0.5)),[3],0.466
AAGTGCAT (double strand) [8-mer AAGTGCAT],binding signal (PBM E-score (-0.5 to 0.5)),[2],0.495
GACTACGA (double strand) [8-mer GACTACGA],binding signal (PBM E-score (-0.5 to 0.5)),[1],0.487
